{
  "source": "paper doi:10.1101/2024.11.26.625467",
  "target": "CO17 B NA (neuraminidase head of B/Colorado/06/2017, B/Victoria-lineage) (influenza B virus B/Colorado/06/2017)",
  "experiment": "cryo-EM structure",
  "data": [
    {"substance": "CO17 B NA (neuraminidase head of B/Colorado/06/2017, B/Victoria-lineage) (domain or fragment)", "values": [
      {"measurement": "stoichiometry N", "value": 4}
    ]}
  ]
}
